Test results: patent US8304236B2, “Modified biotin-binding protein” (Japan Tobacco Inc., priority 2008, dated 2012)
Where “and” joins values, the source holds several entries; their conditions need not be identical. Identical values can stand only once.

Assays:
[1] = Isoelectric focusing electrophoresis (pI observed); type: physicochemical; conditions: pH 3 to 10 gel
Description: The isoelectric point of each low-pI TM2 was measured by isoelectric focusing electrophoresis using an XCell SureLock Mini-Cell (Invitrogen). In accordance with the instruction, each low-pI TM2 (500 ng) and an IEF sample buffer (pH 3 to 10 (2×), Invitrogen) were mixed and were added to a polyacrylamide gel (pH 3 to 10, IEF Gel, Invitrogen) at a pH ranging from 3 to 10, followed by electrophoresis at a variable voltage of 100 V for 1 hour, 200 V for 1 hour, and 500 V for 45 minutes in this order.
After the electrophoresis, the gel was shaken in a blotting buffer (0.7% acetic acid) for 10 minutes and then was transferred onto a PVDF membrane at 10 V for 1 hour using an XCell ll Blot Module (Invitrogen). The PVDF membrane was subjected to reaction with anti-TM2 rabbit antibody (PCT/W2006/326260) serving as a primary antibody and with alkaline phosphate-labeled anti-rabbit IgG antibody (BIO-RAD) serving as a secondary antibody, followed by detection of bands with Alkaline Phosphatase Substrate Kit II
The isoelectric point of the high-affinity TM2 was measured by isoelectric focusing electrophoresis using an XCell SureLock Mini-Cell (Invitrogen). […] The electric point of TM2 D40N having replacement of the […] amino acid was higher than that of the wild type TM2 also in the isoelectric focusing electrophoresis.
The isoelectric point of HALU TM2 was measured by isoelectric focusing electrophoresis using an XCell SureLock Mini-Cell (Invitrogen). In accordance with the instruction, bands of each HALU TM2 (4 μg) were detected by CBB staining. […] The observed isoelectric point of TM2 D40N was 9.7, and was reduced to 8.9 after introduction of mutation of R104E and was reduced to 7.3 to 7.5 after further introduction of mutation of K141E.

fibronectin = fibronectin (Homo sapiens, UniProt P02751); test: Non-specific binding to fibronectin (fibronectin-immobilized microplate, biotinylated HRP, A450); conditions: absorbance at 450 nm
Sequence of fibronectin (P02751 32-2477, species assumed): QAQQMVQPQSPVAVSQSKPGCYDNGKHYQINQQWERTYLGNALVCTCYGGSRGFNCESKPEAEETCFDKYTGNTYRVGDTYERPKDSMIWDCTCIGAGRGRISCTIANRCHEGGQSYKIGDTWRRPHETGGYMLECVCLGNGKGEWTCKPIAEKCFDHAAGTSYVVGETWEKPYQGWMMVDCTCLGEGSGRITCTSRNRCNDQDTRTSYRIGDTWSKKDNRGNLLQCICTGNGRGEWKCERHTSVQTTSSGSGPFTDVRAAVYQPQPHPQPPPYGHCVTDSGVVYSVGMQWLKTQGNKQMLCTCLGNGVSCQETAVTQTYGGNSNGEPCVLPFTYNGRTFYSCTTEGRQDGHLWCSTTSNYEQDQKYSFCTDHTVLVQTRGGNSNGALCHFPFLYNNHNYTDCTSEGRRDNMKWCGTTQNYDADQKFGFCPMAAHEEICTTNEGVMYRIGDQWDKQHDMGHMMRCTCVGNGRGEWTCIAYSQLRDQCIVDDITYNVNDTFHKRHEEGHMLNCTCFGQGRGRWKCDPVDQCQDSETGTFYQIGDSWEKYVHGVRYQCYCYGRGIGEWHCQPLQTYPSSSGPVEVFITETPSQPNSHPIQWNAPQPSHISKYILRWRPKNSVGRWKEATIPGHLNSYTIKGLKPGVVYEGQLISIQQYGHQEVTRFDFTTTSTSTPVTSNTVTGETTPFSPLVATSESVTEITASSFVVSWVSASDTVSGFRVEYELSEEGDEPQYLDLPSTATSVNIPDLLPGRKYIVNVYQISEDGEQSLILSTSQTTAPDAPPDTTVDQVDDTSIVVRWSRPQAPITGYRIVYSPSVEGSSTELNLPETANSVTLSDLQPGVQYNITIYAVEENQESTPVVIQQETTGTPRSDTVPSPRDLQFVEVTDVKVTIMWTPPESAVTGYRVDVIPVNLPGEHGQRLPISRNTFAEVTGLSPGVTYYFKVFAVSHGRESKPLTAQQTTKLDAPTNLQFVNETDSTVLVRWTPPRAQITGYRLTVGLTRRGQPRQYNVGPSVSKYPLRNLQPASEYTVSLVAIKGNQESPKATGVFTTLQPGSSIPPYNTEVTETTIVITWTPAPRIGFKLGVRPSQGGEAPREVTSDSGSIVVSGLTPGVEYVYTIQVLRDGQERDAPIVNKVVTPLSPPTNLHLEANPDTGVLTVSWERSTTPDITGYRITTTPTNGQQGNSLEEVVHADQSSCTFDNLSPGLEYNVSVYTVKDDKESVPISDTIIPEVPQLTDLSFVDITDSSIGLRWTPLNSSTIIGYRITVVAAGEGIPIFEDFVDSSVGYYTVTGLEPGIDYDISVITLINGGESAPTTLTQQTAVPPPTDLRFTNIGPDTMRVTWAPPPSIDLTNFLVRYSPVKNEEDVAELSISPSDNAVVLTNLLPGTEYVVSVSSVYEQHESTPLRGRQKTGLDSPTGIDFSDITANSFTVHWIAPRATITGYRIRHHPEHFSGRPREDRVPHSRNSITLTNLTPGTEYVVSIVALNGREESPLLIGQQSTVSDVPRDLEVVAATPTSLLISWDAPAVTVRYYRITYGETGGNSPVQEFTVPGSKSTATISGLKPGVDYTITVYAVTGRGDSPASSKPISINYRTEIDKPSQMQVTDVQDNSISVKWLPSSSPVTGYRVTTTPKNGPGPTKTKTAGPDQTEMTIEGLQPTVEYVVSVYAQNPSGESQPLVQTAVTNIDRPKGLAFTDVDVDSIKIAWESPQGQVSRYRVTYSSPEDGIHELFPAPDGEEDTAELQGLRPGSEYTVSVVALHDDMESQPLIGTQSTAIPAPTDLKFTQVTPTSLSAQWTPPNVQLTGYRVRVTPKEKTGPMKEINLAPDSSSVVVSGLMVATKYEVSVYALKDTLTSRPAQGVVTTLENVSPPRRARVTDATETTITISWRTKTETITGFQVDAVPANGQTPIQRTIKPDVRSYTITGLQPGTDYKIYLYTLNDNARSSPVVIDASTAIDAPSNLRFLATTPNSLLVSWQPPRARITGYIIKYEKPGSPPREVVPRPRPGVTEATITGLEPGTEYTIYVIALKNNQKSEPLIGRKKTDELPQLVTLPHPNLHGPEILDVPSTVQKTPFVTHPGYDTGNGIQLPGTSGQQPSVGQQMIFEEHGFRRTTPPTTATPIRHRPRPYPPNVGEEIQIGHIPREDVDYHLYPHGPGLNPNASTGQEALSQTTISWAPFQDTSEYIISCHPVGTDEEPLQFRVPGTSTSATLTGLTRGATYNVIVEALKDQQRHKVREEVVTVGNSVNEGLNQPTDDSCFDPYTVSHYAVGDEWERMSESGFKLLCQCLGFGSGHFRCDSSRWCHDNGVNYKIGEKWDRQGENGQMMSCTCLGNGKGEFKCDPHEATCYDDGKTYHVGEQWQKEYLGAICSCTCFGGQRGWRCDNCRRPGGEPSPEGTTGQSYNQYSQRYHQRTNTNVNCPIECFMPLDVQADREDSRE
Description: The fibronectin-binding of each low-pI TM2 was compared using a microplate to which fibronectin was immobilized. The concentration of fibronectin was adjusted to 50 μg/mL with a fixation solution exclusive for a New ELISA plate, and the fibronectin solution (50 μL) was added to each New ELISA plate (Sumitomo Bakelite), followed by shaking at 37° C. for 4 hours for immobilization. Then, the plate was washed with 0.1% Triton X-100-containing PBS (300 μL) three times and was then dried naturally.
TM2, K26A, K73Q, R104E, K141E, and R104EK141E mutants (50 μL each) were each added to the corresponding well of the plate and left at room temperature for 1 hour. The plate was washed with 300 μL/well of PBST (PBS buffer containing 0.1% Tween 20) three times. Then, biotinylated HRP diluted 5000 times with PBST containing 0.5% BSA was added at 50 μL/well and allowed to react with the mutant at room temperature for 1 hour. After washing with 300 μL/well of PBST three times, 50 μL/well of 1-Step Ultra TMB-ELISA solution was added to each well for color development. After termination of the color development with 50 μL/well of 2M sulfuric acid, absorbance at 450 nm was measured with an Infinite 200 microplate reader.
Non-specific binding of HALU TM2 to fibronectin was also investigated as in paragraph 1-10) of Example 1.

Salmon sperm DNA = test: Non-specific binding to DNA (membrane-adsorbed DNA, biotinylated HRP, ECL); conditions: salmon sperm DNA 10 μg to 1 μg on membrane, 25 μg/mL protein
Description: Salmon sperm DNA diluted stepwise from 10 μg to 1 μg with 2×SSC buffer was denatured with an alkali and was adsorbed to Hybond N+membrane (Amersham Biosciences) using Bio-Dot SF (BIO-RAD). After blocking the membrane with 5×Denhardt's solution (0.1% BSA, 0.1% ficoll, 0.1% polyvinylpyrrolidone), the membrane was immersed in 25 μg/mL of low-pI TM2 or the wild-type TM2 at room temperature for 90 minutes. Then, the membrane was washed with a TUBS buffer (TBS buffer containing 0.05% Tween 20) at room temperature for 5 minutes three times. The membrane was blocked with a TBS buffer containing 3% skimmed milk and 0.1% Tween 20 for 1 hour. The membrane was subjected to a reaction with biotinylated horseradise peroxidase (Vector) diluted 5000 times with a TBS buffer containing 3% skimmed milk and 0.1% Tween 20 at room temperature for 1 hour. The membrane was washed with a TBS buffer containing 0.1% Tween 20 again and was then shaken in a solution that is a mixture of reagent 1 and reagent 2 of ECL (Amasham) in the same volumes, followed by detection of the luminol reaction with Las-3000 (FUJIFILM).
The non-specific binding of HALU TM2 to DNA was analyzed by the process in paragraph 1-11) of Example 1.

human serum protein = test: Non-specific adsorption of serum protein to HALU TM2-immobilized magnetic beads; type: binding; conditions: human serum diluted 800 times, anti-human IgG detection
Description: In this Example, non-specific adsorption of serum protein to HALU TM2-immobilized magnetic beads was investigated.
TM2 D40NR104E and TM2 D40NR104EK141E were bonded covalently to magnetic beads (Dynabeads M-270 Carboxylic Acid, Dynal) by the process described in paragraph 1-9) of Example 1, and the amount of human serum protein adsorbed to the beads was measured. The amount of each HALU TM2 immobilized to the magnetic beads was adjusted to 10 μg/100 μL beads. Human serum (CHEMICON) was diluted 800 times with a PBS buffer, and the HALU TM2-immobilized magnetic beads (50 μL) to which a certain amount of protein was immobilized were added to the diluted human serum, followed by mixing by turning the tube containing the beads upside down at room temperature for 15 minutes. The magnetic beads were washed with a PBS buffer containing 0.1% Tween 20 (PBST, 500 μL) four times and were then subjected to antigen-antibody reaction at room temperature for 15 minutes with HRP-labeled anti-human IgG mouse antibody (100 μL) diluted 5000 times with PBST containing 0.5% BSA. Subsequently, the beads were washed with PBST (500 μL) five times, followed by color development with 1-Step Ultra TMB-ELISA (100 μL). After termination of the color development with 2M sulfuric acid (100 μL), the magnetic beads were collected with a magnet. The absorbance at 450 nm of the supernatant was measured with an Infinite 200 microplate reader.

Molecule | pI observed [1] | pI observed ([1]; listed as TM2WT) | pI observed ([1]; listed as wild type TM2) | Binding of fibronectin (A450) (fibronectin; listed as wild type TM2) | Non-specific binding of DNA (Salmon sperm DNA) | Non-specific binding of DNA (Salmon sperm DNA; listed as wild type TM2) | Non-specific binding to serum protein (A450) (human serum protein) | Binding of fibronectin (A450) (fibronectin) | Binding of fibronectin (A450) (fibronectin; listed as D40NR104EK141E) | Non-specific binding to serum protein (A450) (human serum protein; listed as D40NR104EK141E)
TM2: wild type tamavidin 2, biotin-binding protein from Pleurotus cornucopiae, amino acid sequence SEQ ID NO: 2 (protein, listed as Pleurotus cornucopiae) MSDVQSSLTGTWYNELNSKMELTANKDGTLTGKYLSKVGDVYVPYPLSGRYNLQPPAGQGVALGWAVSWENSKIHSATTWSGQFFSESSPVILTQWLLSSSTARGDVWESTLVGNDSFTKTAPTEQQIAHAQLHCRAPRLK | 8.5 to 8.8 | 8.5 to 8.8 | 8.2 to 8.6 and 8.5 to 8.8 | 1.3 to 1.4 | weakly bound | weakly bound | 0.67 |  |  | 
TM2 D40NR104EK141E: TM2 mutant having mutation of D40N and R104EK141E; SEQ ID NO: 24 (protein, Synthetic TM2 D40NR104EK141E) MSDVQSSLTGTWYNELNSKMELTANKDGTLTGKYLSKVGNVYVPYPLSGRYNLQPPAGQGVALGWAVSWENSKIHSATTWSGQFFSESSPVILTQWLLSSSTAEGDVWESTLVGNDSFTKTAPTEQQIAHAQLHCRAPRLE | 7.3 to 7.5 |  |  |  | lower than the detection limit |  | low | extremely low | 0.12 | 0.45
